In US20030134799A1:
Like-named read-outs stand apart in the source and are kept apart here.

How the values were obtained:
[1] = molecular target: NMDA receptor of well-washed rat forebrain membranes (rat) (UniProt Q9R1M7)
[2] = molecular target: NMDA receptor of well-washed rat forebrain membranes (rat) (UniProt Q9R1M7); test: displacement of [3H]ifenprodil, polyamine-sensitive site
[3] = molecular target: NMDA receptor of well-washed rat forebrain membranes (rat) (UniProt Q9R1M7); test: cell-based or functional assay
[4] = molecular target: NMDA receptor of primary cultures of rat cerebellar granule cells (rat); test: cell-based or functional assay

Chain of NMDA receptor of well-washed rat forebrain membranes (rat) (Q9R1M7 24-1135): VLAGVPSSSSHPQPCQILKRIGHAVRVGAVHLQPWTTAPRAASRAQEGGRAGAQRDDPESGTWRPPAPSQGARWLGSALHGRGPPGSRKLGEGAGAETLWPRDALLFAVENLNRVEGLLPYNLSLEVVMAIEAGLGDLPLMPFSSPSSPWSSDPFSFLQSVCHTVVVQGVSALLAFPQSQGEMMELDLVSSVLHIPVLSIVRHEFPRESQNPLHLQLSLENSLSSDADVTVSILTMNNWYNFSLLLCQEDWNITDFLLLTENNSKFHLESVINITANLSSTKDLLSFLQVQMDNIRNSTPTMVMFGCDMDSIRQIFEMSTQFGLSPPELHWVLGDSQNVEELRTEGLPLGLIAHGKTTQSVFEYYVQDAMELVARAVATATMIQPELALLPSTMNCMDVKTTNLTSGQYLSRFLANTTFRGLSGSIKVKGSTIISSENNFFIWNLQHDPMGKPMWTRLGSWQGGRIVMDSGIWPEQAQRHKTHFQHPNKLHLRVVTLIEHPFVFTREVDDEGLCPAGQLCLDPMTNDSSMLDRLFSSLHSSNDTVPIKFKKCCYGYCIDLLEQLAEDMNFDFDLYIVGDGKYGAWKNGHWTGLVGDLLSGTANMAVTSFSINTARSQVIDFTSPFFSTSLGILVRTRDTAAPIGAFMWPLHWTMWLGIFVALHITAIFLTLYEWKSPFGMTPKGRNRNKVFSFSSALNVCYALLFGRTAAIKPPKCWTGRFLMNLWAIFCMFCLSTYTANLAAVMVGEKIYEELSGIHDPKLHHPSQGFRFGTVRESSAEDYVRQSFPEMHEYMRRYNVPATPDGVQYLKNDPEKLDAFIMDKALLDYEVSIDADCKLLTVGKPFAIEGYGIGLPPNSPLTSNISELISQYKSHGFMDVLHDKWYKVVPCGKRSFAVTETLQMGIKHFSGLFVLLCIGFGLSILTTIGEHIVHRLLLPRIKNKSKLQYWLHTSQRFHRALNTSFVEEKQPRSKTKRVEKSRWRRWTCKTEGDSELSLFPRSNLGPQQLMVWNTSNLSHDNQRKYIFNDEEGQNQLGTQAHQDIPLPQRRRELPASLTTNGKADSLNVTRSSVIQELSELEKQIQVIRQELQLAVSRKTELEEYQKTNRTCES

Conantokin-G (peptide)
IC50 [1]: > 5000 nM | IC50 [2]: > 5000 nM | % Inh, spermine-enhanced [3H]MK-801 binding [3]: 100% | % Sti, [3H]MK-801 binding without spermine [3]: 0% | IC50, antagonism of Gly-stimulated [3H]MK-801 binding, representative experiment [3]: 835 nM | IC50, inhibition of spermine-enhanced [3H]MK-801 binding, typical experiment [3]: 275 nM | IC (µM), inhibition of spermine-enhanced [3H]MK-801 binding [3]: 0.16 µM | IC50, inhibition of NMDA-stimulated increases in cyclic GMP formation [4]: 300 nM
